Measurements taken from article PMC8863895.
Read-outs that look alike come from different tables or passages of the source.

Key:
C3b (human) = test: ELISA; decay acceleration assay: 250 ng C3b immobilised on Maxisorp; C3bBb formed with 400 ng Factor B and 25 ng Factor D, 2 h 37 °C; increasing concentrations of regulator, 40 min 37 °C; Bb remaining bound to C3b detected with anti-factor B polyclonal antibody
complement C5 [1] = test: ELISA; 5 µg/mL C3b or C5 immobilised on Maxisorp plates at 4 °C overnight; increasing concentrations of regulator (0.195-50 nM) in sample buffer (2% BSA in TBS, 0.05% Tween-20); detected with anti-His-tag antibodies; absorbance normalised to the highest concentration; IC50 from a 4PL nonlinear regression
complement C3b [2] = biological target: complement C3b (UniProt P01024); test: as above
complement C5 [3] = test: as above; remark: listed apart in the source
complement C3b [4] = biological target: complement C3b (UniProt P01024); test: as above; remark: listed apart in the source

Sequence of human factor H, plasma-derived (hFH) (P08603 19-1231): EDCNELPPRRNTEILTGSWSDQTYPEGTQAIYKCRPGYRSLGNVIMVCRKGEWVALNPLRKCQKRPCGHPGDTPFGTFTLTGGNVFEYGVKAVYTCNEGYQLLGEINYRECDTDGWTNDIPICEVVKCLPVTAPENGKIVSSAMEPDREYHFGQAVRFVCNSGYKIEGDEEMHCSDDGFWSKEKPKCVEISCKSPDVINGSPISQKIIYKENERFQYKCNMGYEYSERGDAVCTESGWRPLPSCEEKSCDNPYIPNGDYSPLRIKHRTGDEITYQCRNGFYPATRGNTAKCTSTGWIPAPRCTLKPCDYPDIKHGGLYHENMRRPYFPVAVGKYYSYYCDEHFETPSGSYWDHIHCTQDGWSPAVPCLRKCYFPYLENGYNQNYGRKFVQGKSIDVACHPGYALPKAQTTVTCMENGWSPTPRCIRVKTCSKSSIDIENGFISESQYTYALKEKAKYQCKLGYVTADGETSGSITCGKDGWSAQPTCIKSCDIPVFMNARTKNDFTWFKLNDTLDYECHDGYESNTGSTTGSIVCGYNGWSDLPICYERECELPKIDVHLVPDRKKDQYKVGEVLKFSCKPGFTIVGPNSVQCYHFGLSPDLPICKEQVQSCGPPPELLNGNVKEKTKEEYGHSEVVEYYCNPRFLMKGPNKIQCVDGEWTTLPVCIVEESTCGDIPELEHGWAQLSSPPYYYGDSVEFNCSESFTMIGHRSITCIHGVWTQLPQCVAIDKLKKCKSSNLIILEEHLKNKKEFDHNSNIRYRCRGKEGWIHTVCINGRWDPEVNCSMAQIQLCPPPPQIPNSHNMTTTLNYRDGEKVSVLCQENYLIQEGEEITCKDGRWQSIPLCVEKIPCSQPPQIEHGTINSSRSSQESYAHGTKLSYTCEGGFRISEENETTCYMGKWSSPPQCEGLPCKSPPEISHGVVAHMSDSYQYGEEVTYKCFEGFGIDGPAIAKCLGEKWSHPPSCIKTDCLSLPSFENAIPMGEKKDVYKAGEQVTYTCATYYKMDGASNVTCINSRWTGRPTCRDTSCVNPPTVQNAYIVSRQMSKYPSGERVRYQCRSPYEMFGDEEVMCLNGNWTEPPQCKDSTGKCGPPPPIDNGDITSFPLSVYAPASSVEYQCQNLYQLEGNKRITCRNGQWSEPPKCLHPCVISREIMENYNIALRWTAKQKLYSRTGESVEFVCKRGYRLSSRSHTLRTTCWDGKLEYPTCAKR

Substance | IC50 (C3b (human)) | IC50 (complement C5 [1]) | IC50 (complement C3b [2]) | IC50 (complement C5 [3]) | IC50 (complement C3b [4])
human factor H, plasma-derived (hFH) (from UniProt P08603 19-1231) (natural protein) | 3.8 nM |  |  |  | 
MFHR1^V62 (FHR1_(1-2):FH1-4:FH_(19-20)) (from UniProt Q03591 19-143; P08603 18-264; P08603 1107-1231) | 9.4 nM |  |  |  | 
MFHR1^I62 (FHR1_(1-2):FH1-4:FH_(19-20), variant with isoleucine at position 62 of factor H) |  | 26.8 nM | 4.7 nM | 52.5 nM | 16.1 nM
MFHR1^V62 (FHR1_(1-2):FH1-4:FH_(19-20), valine at position 62 of factor H) |  | 26.8 nM | 6.32 nM |  | 
MFHR1^I62 (FHR1_(1-2):FH1-4:FH_(19-20), isoleucine at position 193 = position 62 of factor H) (from UniProt Q03591 19-143; P08603 18-264; P08603 1107-1231) | 7.8 nM |  |  |  | 
